T1: PUF4 RNA-binding domain (Saccharomyces cerevisiae, UniProt P25339 537-888)
T1 sequence: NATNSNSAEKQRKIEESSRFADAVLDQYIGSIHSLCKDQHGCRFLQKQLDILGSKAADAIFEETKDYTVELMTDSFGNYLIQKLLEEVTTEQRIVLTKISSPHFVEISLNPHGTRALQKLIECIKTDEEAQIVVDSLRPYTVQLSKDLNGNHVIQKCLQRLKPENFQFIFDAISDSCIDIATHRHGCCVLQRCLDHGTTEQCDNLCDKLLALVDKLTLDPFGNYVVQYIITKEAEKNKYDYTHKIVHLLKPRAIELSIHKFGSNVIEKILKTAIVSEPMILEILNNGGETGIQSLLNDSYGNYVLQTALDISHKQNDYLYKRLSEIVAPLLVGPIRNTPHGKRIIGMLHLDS


Each binder was assayed against T1, PUF4 RNA-binding domain (assay: Mg; RNA-MaP; 20 mM Na-HEPES pH 7.4, 30 mM KOAc, 0.75 mM MgCl2, 0.1% Tween-20, 5% glycerol, 0.1 mg/mL BSA, 2 mM DTT; 25 C; 0.0125-409.6 nM protein). Conditions: tags: N-His6-TEV cleaved; C-SNAP kept, Cy3B-labelled; label: tethered on chip by stalled RNA polymerase.

Binder	Kd [nM]
UCUCUUUCUGUAUAUACAUCUCUU (ssRNA) [Id_ii_S1_P3E.2_K3.1_C3.2_[C-2T]_[T-1C]_H3.1_A3.1_F3.1_T3.2_[T9C]]	23
UCUCUUGCUGUAUAUACCUCUCUU (ssRNA) [Id_ii_S1_P3E.2_K3.1_C3.2_[C-2G]_[T-1C]_H3.1_A3.1_F3.1_T3.2_[T9C]_[A10C]]	17.3
UCUCUUGGUGUAUAUAUGUCUCUU (ssRNA) [Id_ii_S1_P3E.2_K3.1_C3.2_[C-2G]_[T-1G]_H3.1_A3.1_F3.1_T3.2_[A10G]]	16.4
UCUCUUGCUGUAUAUAUCUCUCUU (ssRNA) [Id_ii_S1_P3E.2_K3.1_C3.2_[C-2G]_[T-1C]_H3.1_A3.1_F3.1_T3.2_[A10C]]	12.6
UCUCUUGCUGUAUAUAAAUCUCUU (ssRNA) [Id_ii_S1_P3E.2_K3.1_C3.2_[C-2G]_[T-1C]_H3.1_A3.1_F3.1_T3.2_[T9A]]	15.5
UCUCUUUCUGUAUAUACGUCUCUU (ssRNA) [Id_ii_S1_P3E.2_K3.1_C3.2_[C-2T]_[T-1C]_H3.1_A3.1_F3.1_T3.2_[T9C]_[A10G]]	17.9
UCUCUUAGUGUAUUAUCUCUU (ssRNA) [Ib_S1_P4E.1_K4.1_C4.1_H4.1_[T1A]_[A4G]_A4.1_F4.1_T4.1]	64
UCUCUUUGUGUAUAUACCUCUCUU (ssRNA) [Id_ii_S1_P3E.2_K3.1_C3.2_[C-2T]_[T-1G]_H3.1_A3.1_F3.1_T3.2_[T9C]_[A10C]]	23.4
UCUCUUUGUGUAUAUAUGUCUCUU (ssRNA) [Id_ii_S1_P3E.2_K3.1_C3.2_[C-2T]_[T-1G]_H3.1_A3.1_F3.1_T3.2_[A10G]]	8.9
UCUCUUGGUGUAUAUAGUUCUCUU (ssRNA) [Id_ii_S1_P3E.2_K3.1_C3.2_[C-2G]_[T-1G]_H3.1_A3.1_F3.1_T3.2_[T9G]_[A10T]]	6.96
UCUCUUGUUGUAUAUAUUUCUCUU (ssRNA) [Id_ii_S1_P3E.2_K3.1_C3.2_[C-2G]_H3.1_A3.1_F3.1_T3.2_[A10T]]	8
UCUCUUGCUGUAUAUAUGUCUCUU (ssRNA) [Id_ii_S1_P3E.2_K3.1_C3.2_[C-2G]_[T-1C]_H3.1_A3.1_F3.1_T3.2_[A10G]]	12.4
UCUCUUGUUGUAUAUAAUUCUCUU (ssRNA) [Id_ii_S1_P3E.2_K3.1_C3.2_[C-2G]_H3.1_A3.1_F3.1_T3.2_[T9A]_[A10T]]	9.55
UCUCUUAGUUUAUUAUCUCUU (ssRNA) [Ib_S1_P4E.1_K4.1_C4.1_H4.1_[T1A]_[A4T]_A4.1_F4.1_T4.1]	> 2300
UCUCUUUCUGUAUAUAAGUCUCUU (ssRNA) [Id_ii_S1_P3E.2_K3.1_C3.2_[C-2T]_[T-1C]_H3.1_A3.1_F3.1_T3.2_[T9A]_[A10G]]	6.84
UCUCUUUCUGUAUAUAACUCUCUU (ssRNA) [Id_ii_S1_P3E.2_K3.1_C3.2_[C-2T]_[T-1C]_H3.1_A3.1_F3.1_T3.2_[T9A]_[A10C]]	5.55
UCUCUUGGUGUAUAUAUUUCUCUU (ssRNA) [Id_ii_S1_P3E.2_K3.1_C3.2_[C-2G]_[T-1G]_H3.1_A3.1_F3.1_T3.2_[A10T]]	15.2
UCUCUUUGUGUAUAUAUCUCUCUU (ssRNA) [Id_ii_S1_P3E.2_K3.1_C3.2_[C-2T]_[T-1G]_H3.1_A3.1_F3.1_T3.2_[A10C]]	7.14
UCUCUUGUUGUAUAUAUCUCUCUU (ssRNA) [Id_ii_S1_P3E.2_K3.1_C3.2_[C-2G]_H3.1_A3.1_F3.1_T3.2_[A10C]]	8.36

Binder	Kd [nM]
UCUCUUGCUGUAUAUAACUCUCUU (ssRNA) [Id_ii_S1_P3E.2_K3.1_C3.2_[C-2G]_[T-1C]_H3.1_A3.1_F3.1_T3.2_[T9A]_[A10C]]	18.8
UCUCUUGCUGUAUAUAUUUCUCUU (ssRNA) [Id_ii_S1_P3E.2_K3.1_C3.2_[C-2G]_[T-1C]_H3.1_A3.1_F3.1_T3.2_[A10T]]	12.9
UCUCUUUGUGUAUAUAUUUCUCUU (ssRNA) [Id_ii_S1_P3E.2_K3.1_C3.2_[C-2T]_[T-1G]_H3.1_A3.1_F3.1_T3.2_[A10T]]	8.9
UCUCUUUGUGUAUAUAAUUCUCUU (ssRNA) [Id_ii_S1_P3E.2_K3.1_C3.2_[C-2T]_[T-1G]_H3.1_A3.1_F3.1_T3.2_[T9A]_[A10T]]	9.46
UCUCUUGUUGUAUAUAUGUCUCUU (ssRNA) [Id_ii_S1_P3E.2_K3.1_C3.2_[C-2G]_H3.1_A3.1_F3.1_T3.2_[A10G]]	8.99
UCUCUUGUUGUAUAUACCUCUCUU (ssRNA) [Id_ii_S1_P3E.2_K3.1_C3.2_[C-2G]_H3.1_A3.1_F3.1_T3.2_[T9C]_[A10C]]	20.1
UCUCUUUGUGUAUAUAGUUCUCUU (ssRNA) [Id_ii_S1_P3E.2_K3.1_C3.2_[C-2T]_[T-1G]_H3.1_A3.1_F3.1_T3.2_[T9G]_[A10T]]	6.29
UCUCUUUCUGUAUAUAAUUCUCUU (ssRNA) [Id_ii_S1_P3E.2_K3.1_C3.2_[C-2T]_[T-1C]_H3.1_A3.1_F3.1_T3.2_[T9A]_[A10T]]	4.37
UCUCUUUUCAUAUUAUCUCUU (ssRNA) [Ib_S1_P4E.1_K4.1_C4.1_H4.1_[G2T]_[T3C]_A4.1_F4.1_T4.1]	> 2300
UCUCUUUCUGUAUAUAUCUCUCUU (ssRNA) [Id_ii_S1_P3E.2_K3.1_C3.2_[C-2T]_[T-1C]_H3.1_A3.1_F3.1_T3.2_[A10C]]	5.38
UCUCUUCGUGUAUUAUCUCUU (ssRNA) [Ib_S1_P4E.1_K4.1_C4.1_H4.1_[T1C]_[A4G]_A4.1_F4.1_T4.1]	33.2
UCUCUUUCUGUAUAUAGUUCUCUU (ssRNA) [Id_ii_S1_P3E.2_K3.1_C3.2_[C-2T]_[T-1C]_H3.1_A3.1_F3.1_T3.2_[T9G]_[A10T]]	3.7
Id_i_S4_P3E.5_K3.1_C3.3_[T-3C]_[C-2G]_[T-1C]_H3.1_A3.1_F3.1_T3.2 (ssRNA) RNA: UUUGACAACUGAUCGUUCUUUCUCGCUGUAUAUAUAUUCUUUCUCGAUCAGUUGUCUUU	1.51
Id_i_S4_P3E.6_K3.2_C3.3_[T-3C]_[C-2A]_[T-1C]_H3.2_A3.1_F3.1_T3.2 (ssRNA) RNA: UUUGACAACUGAUCGUUCUUUCUCACUAUAUAUAUAUUCUUUCUCGAUCAGUUGUCUUU	56.5
Id_i_S4_P3E.5_K3.1_C3.3_[T-3A]_[C-2T]_[T-1C]_H3.1_A3.1_F3.1_T3.2 (ssRNA) RNA: UUUGACAACUGAUCGUUCUUUCUAUCUGUAUAUAUAUUCUUUCUCGAUCAGUUGUCUUU	1.98
Id_i_S4_P3E.7_K3.3_C3.3_[T-3C]_[C-2T]_[T-1A]_H3.3_A3.1_F3.1_T3.2 (ssRNA) RNA: UUUGACAACUGAUCGUUCUUUCUCUAACACUAUAUAUUCUUUCUCGAUCAGUUGUCUUU	113
Id_i_S4_P3E.6_K3.2_C3.3_[T-3C]_[C-2T]_[T-1G]_H3.2_A3.1_F3.1_T3.2 (ssRNA) RNA: UUUGACAACUGAUCGUUCUUUCUCUGUAUAUAUAUAUUCUUUCUCGAUCAGUUGUCUUU	1.92
Id_i_S4_P3E.7_K3.3_C3.3_[T-3A]_[C-2A]_[T-1A]_H3.3_A3.1_F3.1_T3.2 (ssRNA) RNA: UUUGACAACUGAUCGUUCUUUCUAAAACACUAUAUAUUCUUUCUCGAUCAGUUGUCUUU	451
Id_i_S4_P3E.6_K3.2_C3.3_[T-3C]_[C-2T]_[T-1A]_H3.2_A3.1_F3.1_T3.2 (ssRNA) RNA: UUUGACAACUGAUCGUUCUUUCUCUAUAUAUAUAUAUUCUUUCUCGAUCAGUUGUCUUU	500

Binder	Kd [nM]
Id_i_S4_P3E.7_K3.3_C3.3_[T-3A]_[C-2T]_[T-1C]_H3.3_A3.1_F3.1_T3.2 (ssRNA) RNA: UUUGACAACUGAUCGUUCUUUCUAUCACACUAUAUAUUCUUUCUCGAUCAGUUGUCUUU	346
Id_i_S4_P3E.7_K3.3_C3.3_[T-3A]_[C-2T]_[T-1A]_H3.3_A3.1_F3.1_T3.2 (ssRNA) RNA: UUUGACAACUGAUCGUUCUUUCUAUAACACUAUAUAUUCUUUCUCGAUCAGUUGUCUUU	571
Id_i_S4_P3E.7_K3.3_C3.3_[T-3C]_[C-2A]_[T-1G]_H3.3_A3.1_F3.1_T3.2 (ssRNA) RNA: UUUGACAACUGAUCGUUCUUUCUCAGACACUAUAUAUUCUUUCUCGAUCAGUUGUCUUU	572
Id_i_S4_P3E.5_K3.1_C3.3_[T-3C]_[C-2T]_[T-1G]_H3.1_A3.1_F3.1_T3.2 (ssRNA) RNA: UUUGACAACUGAUCGUUCUUUCUCUGUGUAUAUAUAUUCUUUCUCGAUCAGUUGUCUUU	1.5
Id_i_S4_P3E.7_K3.3_C3.3_[T-3C]_[C-2A]_[T-1A]_H3.3_A3.1_F3.1_T3.2 (ssRNA) RNA: UUUGACAACUGAUCGUUCUUUCUCAAACACUAUAUAUUCUUUCUCGAUCAGUUGUCUUU	110
Id_i_S4_P3E.6_K3.2_C3.3_[T-3A]_[C-2G]_[T-1C]_H3.2_A3.1_F3.1_T3.2 (ssRNA) RNA: UUUGACAACUGAUCGUUCUUUCUAGCUAUAUAUAUAUUCUUUCUCGAUCAGUUGUCUUU	537
Id_i_S4_P3E.7_K3.3_C3.3_[T-3C]_[C-2T]_[T-1G]_H3.3_A3.1_F3.1_T3.2 (ssRNA) RNA: UUUGACAACUGAUCGUUCUUUCUCUGACACUAUAUAUUCUUUCUCGAUCAGUUGUCUUU	424
Id_i_S4_P3E.6_K3.2_C3.3_[T-3G]_[C-2G]_[T-1C]_H3.2_A3.1_F3.1_T3.2 (ssRNA) RNA: UUUGACAACUGAUCGUUCUUUCUGGCUAUAUAUAUAUUCUUUCUCGAUCAGUUGUCUUU	1420
UCUCUUGCUGUAUAUAAUUCUCUU (ssRNA) [Id_ii_S1_P3E.2_K3.1_C3.2_[C-2G]_[T-1C]_H3.1_A3.1_F3.1_T3.2_[T9A]_[A10T]]	12.4
UCUCUUGUUGUAUAUAUAUCUCUU (ssRNA) [Id_ii_S1_P3E.2_K3.1_C3.2_[C-2G]_H3.1_A3.1_F3.1_T3.2]	5.16
UCUCUUGCUGUAUAUACUUCUCUU (ssRNA) [Id_ii_S1_P3E.2_K3.1_C3.2_[C-2G]_[T-1C]_H3.1_A3.1_F3.1_T3.2_[T9C]_[A10T]]	31.8
Id_i_S4_P3E.4_K3.3_C3.2_[C-2A]_[T-1C]_H3.3_A3.1_F3.1_T3.2 (ssRNA) RNA: UUUGACAACUGAUCGUUCUUUCUACACACUAUAUAUUCUUUCUCGAUCAGUUGUCUUU	295
UCUCUUUCUGUAUAUACUUCUCUU (ssRNA) [Id_ii_S1_P3E.2_K3.1_C3.2_[C-2T]_[T-1C]_H3.1_A3.1_F3.1_T3.2_[T9C]_[A10T]]	9.31
UCUCUUUCUGUAUAUAGCUCUCUU (ssRNA) [Id_ii_S1_P3E.2_K3.1_C3.2_[C-2T]_[T-1C]_H3.1_A3.1_F3.1_T3.2_[T9G]_[A10C]]	3.8
UCUCUUGUUGUAUAUAAAUCUCUU (ssRNA) [Id_ii_S1_P3E.2_K3.1_C3.2_[C-2G]_H3.1_A3.1_F3.1_T3.2_[T9A]]	8.84
UCUCUUGUUGUAUAUAGUUCUCUU (ssRNA) [Id_ii_S1_P3E.2_K3.1_C3.2_[C-2G]_H3.1_A3.1_F3.1_T3.2_[T9G]_[A10T]]	4.57
UCUCUUCGUUUAUUAUCUCUU (ssRNA) [Ib_S1_P4E.1_K4.1_C4.1_H4.1_[T1C]_[A4T]_A4.1_F4.1_T4.1]	> 2300
UCUCUUGGUGUAUAUAAUUCUCUU (ssRNA) [Id_ii_S1_P3E.2_K3.1_C3.2_[C-2G]_[T-1G]_H3.1_A3.1_F3.1_T3.2_[T9A]_[A10T]]	16.3
UCUCUUUCUGUAUAUAAAUCUCUU (ssRNA) [Id_ii_S1_P3E.2_K3.1_C3.2_[C-2T]_[T-1C]_H3.1_A3.1_F3.1_T3.2_[T9A]]	8.49

Reference: article PMC9352680, “A comprehensive thermodynamic model for RNA binding by the Saccharomyces cerevisiae Pumilio protein PUF4”
